Measured values: patent US20240425885

Key:
Assay in all cases: cleavage_in_vitro
[1] = tested on: T1, OMNI-123 (metagenomic, unknown); details: TXTL; PAM NNNSGYAA
T1 sequence: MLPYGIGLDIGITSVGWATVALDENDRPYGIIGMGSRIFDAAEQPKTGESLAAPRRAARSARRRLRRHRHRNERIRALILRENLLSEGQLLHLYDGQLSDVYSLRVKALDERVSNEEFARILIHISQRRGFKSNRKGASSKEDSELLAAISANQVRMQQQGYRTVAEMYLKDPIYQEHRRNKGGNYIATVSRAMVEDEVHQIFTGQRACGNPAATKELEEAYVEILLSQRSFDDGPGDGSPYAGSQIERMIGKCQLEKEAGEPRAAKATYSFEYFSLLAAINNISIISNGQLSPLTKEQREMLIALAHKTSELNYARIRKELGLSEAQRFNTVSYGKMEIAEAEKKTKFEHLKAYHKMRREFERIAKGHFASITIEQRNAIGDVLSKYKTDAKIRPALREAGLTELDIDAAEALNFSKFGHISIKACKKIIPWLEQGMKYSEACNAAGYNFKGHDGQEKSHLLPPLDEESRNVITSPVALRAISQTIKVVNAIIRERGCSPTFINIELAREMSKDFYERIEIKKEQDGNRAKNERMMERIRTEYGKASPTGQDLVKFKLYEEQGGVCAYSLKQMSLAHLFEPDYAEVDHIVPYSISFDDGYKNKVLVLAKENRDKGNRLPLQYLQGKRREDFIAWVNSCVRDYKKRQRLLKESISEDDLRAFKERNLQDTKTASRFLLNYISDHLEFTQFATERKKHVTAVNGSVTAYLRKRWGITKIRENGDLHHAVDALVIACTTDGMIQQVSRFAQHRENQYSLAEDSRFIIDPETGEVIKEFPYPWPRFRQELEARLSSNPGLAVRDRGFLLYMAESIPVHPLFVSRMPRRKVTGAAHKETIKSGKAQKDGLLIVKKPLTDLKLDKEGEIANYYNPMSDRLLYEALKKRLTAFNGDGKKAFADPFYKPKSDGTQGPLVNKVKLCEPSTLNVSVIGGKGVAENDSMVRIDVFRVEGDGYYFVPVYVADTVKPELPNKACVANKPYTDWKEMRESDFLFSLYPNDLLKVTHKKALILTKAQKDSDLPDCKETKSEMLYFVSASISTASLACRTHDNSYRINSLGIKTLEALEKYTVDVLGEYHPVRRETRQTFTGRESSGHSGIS

[2] = tested on: T2, OMNI-125 (metagenomic, unknown); details: TXTL; PAM NARNCCYN
T2 sequence: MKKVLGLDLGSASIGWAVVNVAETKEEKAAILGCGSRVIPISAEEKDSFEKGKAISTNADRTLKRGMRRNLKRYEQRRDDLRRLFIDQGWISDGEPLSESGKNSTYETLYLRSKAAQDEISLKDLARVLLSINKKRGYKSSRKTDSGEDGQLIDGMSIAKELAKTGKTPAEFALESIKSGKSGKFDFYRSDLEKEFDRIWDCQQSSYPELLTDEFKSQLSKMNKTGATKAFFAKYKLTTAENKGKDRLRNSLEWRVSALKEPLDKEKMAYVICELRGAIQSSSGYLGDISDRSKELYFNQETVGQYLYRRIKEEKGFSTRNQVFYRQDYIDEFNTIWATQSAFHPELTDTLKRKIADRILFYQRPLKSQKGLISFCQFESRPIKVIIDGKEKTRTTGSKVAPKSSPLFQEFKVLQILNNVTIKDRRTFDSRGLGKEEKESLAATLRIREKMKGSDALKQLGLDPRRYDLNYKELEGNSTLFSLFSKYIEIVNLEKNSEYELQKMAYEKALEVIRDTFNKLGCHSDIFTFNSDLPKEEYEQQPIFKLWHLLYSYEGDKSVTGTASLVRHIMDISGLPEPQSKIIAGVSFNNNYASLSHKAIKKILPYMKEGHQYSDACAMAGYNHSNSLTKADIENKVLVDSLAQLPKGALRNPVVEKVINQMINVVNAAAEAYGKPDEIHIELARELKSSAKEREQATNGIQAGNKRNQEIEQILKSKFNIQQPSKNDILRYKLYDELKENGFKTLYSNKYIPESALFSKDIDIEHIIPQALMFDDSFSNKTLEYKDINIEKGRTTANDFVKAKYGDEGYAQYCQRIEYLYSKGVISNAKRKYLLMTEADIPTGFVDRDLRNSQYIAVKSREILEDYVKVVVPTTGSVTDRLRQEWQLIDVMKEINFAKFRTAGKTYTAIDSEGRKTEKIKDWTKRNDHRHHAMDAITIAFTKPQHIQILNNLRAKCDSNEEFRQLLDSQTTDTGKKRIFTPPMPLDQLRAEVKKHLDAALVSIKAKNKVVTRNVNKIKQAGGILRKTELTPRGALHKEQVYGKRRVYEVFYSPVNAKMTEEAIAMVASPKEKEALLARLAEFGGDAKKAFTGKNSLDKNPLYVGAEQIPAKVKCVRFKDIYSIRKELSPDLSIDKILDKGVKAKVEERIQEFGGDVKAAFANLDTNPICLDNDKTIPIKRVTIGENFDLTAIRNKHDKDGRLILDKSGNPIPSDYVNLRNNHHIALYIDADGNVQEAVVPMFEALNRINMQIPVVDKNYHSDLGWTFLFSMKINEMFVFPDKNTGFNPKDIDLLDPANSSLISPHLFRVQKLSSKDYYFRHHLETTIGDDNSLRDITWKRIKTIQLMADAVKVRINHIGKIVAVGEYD

[3] = tested on: OMNI-121 (metagenomic, unknown); details: TXTL; PAM NNAAAYNN
[4] = tested on: T3, OMNI-122 (metagenomic, unknown); details: TXTL; PAM NRYTTTYN
T3 sequence: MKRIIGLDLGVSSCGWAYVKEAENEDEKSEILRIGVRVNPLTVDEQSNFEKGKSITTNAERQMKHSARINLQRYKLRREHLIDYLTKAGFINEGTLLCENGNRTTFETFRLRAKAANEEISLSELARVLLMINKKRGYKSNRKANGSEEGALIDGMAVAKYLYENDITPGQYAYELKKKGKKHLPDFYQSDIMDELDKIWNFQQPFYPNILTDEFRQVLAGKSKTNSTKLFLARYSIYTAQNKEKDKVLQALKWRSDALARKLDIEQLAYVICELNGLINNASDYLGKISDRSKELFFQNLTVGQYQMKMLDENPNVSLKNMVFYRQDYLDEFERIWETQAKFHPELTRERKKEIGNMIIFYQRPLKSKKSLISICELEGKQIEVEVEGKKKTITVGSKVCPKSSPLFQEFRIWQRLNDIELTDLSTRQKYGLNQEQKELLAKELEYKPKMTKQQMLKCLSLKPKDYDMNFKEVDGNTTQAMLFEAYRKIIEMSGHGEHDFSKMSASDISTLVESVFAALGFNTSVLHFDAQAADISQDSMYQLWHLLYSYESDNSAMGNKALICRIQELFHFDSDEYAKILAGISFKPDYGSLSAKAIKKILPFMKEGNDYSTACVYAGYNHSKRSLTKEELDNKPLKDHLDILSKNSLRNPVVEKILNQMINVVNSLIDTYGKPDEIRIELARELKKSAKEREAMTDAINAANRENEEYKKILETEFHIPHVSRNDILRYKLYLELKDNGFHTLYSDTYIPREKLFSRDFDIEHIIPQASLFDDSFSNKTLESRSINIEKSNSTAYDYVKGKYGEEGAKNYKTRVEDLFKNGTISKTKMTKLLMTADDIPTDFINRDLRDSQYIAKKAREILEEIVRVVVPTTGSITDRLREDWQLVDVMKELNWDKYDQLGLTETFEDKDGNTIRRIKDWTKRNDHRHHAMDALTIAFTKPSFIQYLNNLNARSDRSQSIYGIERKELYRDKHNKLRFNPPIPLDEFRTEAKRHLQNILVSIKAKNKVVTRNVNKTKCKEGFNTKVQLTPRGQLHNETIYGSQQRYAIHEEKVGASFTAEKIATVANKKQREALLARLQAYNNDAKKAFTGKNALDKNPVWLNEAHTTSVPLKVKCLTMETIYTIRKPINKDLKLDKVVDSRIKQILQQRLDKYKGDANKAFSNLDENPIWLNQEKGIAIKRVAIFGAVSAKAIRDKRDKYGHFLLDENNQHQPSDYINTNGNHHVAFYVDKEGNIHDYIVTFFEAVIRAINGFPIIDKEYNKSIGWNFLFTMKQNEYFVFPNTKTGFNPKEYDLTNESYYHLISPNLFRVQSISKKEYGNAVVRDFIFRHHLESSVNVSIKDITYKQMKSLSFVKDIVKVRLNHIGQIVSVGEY

[5] = tested on: T4, OMNI-126 (metagenomic, unknown); details: TXTL; PAM NNNNAARN
T4 sequence: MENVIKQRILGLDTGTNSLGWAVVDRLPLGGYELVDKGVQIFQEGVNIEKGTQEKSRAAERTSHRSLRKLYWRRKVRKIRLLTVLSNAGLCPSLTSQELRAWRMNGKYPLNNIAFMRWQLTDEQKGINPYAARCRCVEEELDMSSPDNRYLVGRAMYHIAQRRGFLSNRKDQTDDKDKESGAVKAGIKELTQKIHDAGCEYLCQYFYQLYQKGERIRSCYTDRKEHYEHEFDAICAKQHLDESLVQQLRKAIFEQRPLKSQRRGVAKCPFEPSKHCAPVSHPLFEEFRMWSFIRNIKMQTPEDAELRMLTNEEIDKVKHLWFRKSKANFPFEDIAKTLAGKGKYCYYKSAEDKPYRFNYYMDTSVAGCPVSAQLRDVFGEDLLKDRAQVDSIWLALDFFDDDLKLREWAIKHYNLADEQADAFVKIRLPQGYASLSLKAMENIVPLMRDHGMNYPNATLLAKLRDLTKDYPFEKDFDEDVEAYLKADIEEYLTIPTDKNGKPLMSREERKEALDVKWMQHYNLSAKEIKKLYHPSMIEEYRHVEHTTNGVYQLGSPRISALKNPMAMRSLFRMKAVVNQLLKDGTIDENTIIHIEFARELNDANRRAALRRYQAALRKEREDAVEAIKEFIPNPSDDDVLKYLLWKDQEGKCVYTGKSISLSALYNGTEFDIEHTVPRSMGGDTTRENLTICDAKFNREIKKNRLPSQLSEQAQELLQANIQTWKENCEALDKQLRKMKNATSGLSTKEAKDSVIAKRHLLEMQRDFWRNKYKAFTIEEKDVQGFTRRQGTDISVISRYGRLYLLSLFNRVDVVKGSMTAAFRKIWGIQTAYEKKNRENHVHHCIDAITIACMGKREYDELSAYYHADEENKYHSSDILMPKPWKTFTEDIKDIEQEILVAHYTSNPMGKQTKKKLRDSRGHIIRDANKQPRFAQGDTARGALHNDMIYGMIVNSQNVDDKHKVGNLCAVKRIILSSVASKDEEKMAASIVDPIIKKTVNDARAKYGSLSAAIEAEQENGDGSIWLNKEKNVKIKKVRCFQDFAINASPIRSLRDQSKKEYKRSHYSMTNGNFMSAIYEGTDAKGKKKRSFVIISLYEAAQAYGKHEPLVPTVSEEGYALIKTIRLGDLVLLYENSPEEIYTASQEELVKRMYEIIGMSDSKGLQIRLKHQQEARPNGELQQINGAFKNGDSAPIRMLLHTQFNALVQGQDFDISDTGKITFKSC

Sequence of OMNI-121 (metagenomic, unknown) (chain, as listed by the source): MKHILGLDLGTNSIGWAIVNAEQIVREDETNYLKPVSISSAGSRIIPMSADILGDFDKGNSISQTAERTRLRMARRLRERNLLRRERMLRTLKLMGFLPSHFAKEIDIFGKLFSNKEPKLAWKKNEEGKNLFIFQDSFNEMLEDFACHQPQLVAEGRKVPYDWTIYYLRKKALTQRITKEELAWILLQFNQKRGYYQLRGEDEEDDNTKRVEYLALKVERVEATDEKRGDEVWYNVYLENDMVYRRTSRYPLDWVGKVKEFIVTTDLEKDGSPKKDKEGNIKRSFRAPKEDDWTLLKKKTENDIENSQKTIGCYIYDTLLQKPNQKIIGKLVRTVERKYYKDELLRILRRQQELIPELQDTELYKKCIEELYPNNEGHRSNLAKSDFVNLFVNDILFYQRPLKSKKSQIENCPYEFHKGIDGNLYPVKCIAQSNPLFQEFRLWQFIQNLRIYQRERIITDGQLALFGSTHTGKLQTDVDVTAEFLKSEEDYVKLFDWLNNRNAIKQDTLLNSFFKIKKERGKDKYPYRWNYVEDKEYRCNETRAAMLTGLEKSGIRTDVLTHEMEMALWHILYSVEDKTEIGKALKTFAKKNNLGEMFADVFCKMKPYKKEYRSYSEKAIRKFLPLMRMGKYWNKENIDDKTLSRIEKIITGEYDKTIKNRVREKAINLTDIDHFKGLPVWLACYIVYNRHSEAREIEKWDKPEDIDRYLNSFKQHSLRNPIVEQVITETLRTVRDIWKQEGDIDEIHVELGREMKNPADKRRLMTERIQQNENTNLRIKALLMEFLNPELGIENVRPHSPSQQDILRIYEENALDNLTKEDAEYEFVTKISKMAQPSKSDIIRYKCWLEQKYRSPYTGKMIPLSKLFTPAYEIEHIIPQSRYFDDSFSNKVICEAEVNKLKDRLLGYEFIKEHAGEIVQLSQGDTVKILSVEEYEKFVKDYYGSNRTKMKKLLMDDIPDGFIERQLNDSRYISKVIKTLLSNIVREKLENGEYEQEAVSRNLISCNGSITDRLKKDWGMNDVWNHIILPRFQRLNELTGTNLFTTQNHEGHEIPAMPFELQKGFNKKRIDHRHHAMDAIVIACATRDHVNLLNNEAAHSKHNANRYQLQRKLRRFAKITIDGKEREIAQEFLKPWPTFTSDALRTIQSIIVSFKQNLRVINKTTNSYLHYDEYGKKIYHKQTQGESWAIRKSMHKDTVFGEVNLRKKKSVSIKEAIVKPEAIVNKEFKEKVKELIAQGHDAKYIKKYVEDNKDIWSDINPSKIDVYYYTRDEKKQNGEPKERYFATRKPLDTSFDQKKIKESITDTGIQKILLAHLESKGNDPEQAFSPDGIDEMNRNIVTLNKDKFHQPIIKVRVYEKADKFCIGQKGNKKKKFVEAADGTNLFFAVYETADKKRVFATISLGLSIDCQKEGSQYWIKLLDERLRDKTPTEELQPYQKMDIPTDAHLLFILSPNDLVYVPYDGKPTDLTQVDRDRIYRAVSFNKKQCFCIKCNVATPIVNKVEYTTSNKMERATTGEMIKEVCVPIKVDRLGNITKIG

Question: “GGAAGAGCAGAGCCUUGGUCUCGUUAUAGUUCCCUGAUAGUGAAAACUAUGAGGUUGCUAUAAUAAGGUAGUAAACCGCAGAGCUCUAACGCCUCACAUUUGUGGGGCGUUAUCUCUUUUUUU / GGAAGAGCAGAGCCTTGGTCTCNNNNNNNN / NNNNNNNNGAGACCAAGGCTCTGCTCTTCC [T2 sgRNA 26 V1 ; T2 protospacer + 8N PAM library (pbPOS T2)]” was tested. Which activity (1-depletion score) [1] did it give?
Answer: Its activity (1-depletion score) is 0.95.

Question: How did the activity (1-depletion score) [2] turn out when “GGAAGAGCAGAGCCUUGGUCUCGUUGUGAAUGGCUUUCGAAAUUGAAGCCAUUCACAAUAAGGAUUAUUCCGUUGUGAAAACAUUAAGAGCGGGUCGUGAGACUCGCUCUUCUGUGUUUAUUUUUU / GGAAGAGCAGAGCCTTGGTCTCNNNNNNNN / NNNNNNNNGAGACCAAGGCTCTGCTCTTCC [T2 sgRNA 27 V1 ; T2 protospacer + 8N PAM library (pbPOS T2)]” was run?
Answer: Its activity (1-depletion score) is 0.95.

Question: Which activity (1-depletion score) [3] does the source give for “GGAAGAGCAGAGCCUUGGUCUCGUUGUGAAUUGCUUGAAAUUCUUGAAAGAAUUUCAGCAAUUCACAAUAAGGAUUAUUCCGUUGUGAAAACAUUCAGGUUCCUGCCCUCGUCCUUUAACGGGGGCUUUUUU / GGAAGAGCAGAGCCTTGGTCTCNNNNNNNN / NNNNNNNNGAGACCAAGGCTCTGCTCTTCC [T2 sgRNA 24 V1 ; T2 protospacer + 8N PAM library (pbPOS T2)]” here?
Answer: Its activity (1-depletion score) is 0.91.

Question: “GGAAGAGCAGAGCCUUGGUCUCGUUGUGAAUUGCUUUCGAAAGAAGCAAUUCACAAUAAGGAUUAUUCCGUUGUGAAAACAUUUAAGAGAGUCCUUCGUCCUUCGGAGGAUUCUUUUUU / GGAAGAGCAGAGCCTTGGTCTCNNNNNNNN / NNNNNNNNGAGACCAAGGCTCTGCTCTTCC [T2 sgRNA 25 V1 ; T2 protospacer + 8N PAM library (pbPOS T2)]” was tested. Which activity (1-depletion score) [4] did it give?
Answer: Its activity (1-depletion score) is 0.84.

Question: Which activity (1-depletion score) [5] does the source give for “GGAAGAGCAGAGCCUUGGUCUCGUUGUGGCUUGUUGAAGAAGAAAUUCUUCAACUUGUCACAAUAAGGCCCUUAAGGCCGAAGGUUGAAAAACCUAUGGCUCUACUUCGGUGGAGCCUUUUUU / GGAAGAGCAGAGCCTTGGTCTCNNNNNNNN / NNNNNNNNGAGACCAAGGCTCTGCTCTTCC [T2 sgRNA 28 V1 ; T2 protospacer + 8N PAM library (pbPOS T2)]” here?
Answer: Its activity (1-depletion score) is 0.64.
